Target: MINI3 (WRKY10) (Arabidopsis) (UniProt Q9LG05)
Experiment: competition
Conditions: 25 mM Hepes-KOH pH 7.2, 40 mM KCl, 1 mM DTT, 1 mM EDTA, 10% glycerol, 0.01 uM ZnCl2, 2 ug poly-dIdC, 3 ng probe, 1 ug protein in 20 ul; room temperature …

Chain of MINI3 (WRKY10) (Arabidopsis) (Q9LG05 whole entry): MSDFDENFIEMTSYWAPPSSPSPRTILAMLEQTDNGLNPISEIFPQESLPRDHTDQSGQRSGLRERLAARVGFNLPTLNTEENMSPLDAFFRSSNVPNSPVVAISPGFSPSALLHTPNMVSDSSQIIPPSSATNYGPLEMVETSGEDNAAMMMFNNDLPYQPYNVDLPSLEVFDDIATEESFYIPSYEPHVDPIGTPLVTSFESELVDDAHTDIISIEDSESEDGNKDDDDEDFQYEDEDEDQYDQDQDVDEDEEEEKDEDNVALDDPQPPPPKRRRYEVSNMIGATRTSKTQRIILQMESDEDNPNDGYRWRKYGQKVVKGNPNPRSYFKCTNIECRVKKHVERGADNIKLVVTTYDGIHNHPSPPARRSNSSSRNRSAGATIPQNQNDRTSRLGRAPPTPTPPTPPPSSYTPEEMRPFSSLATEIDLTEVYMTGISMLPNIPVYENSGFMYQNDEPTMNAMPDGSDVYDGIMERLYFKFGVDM

Row | Sequence | binding
1 | GACATTACTGTCATCGTATATGAAACATTATTCTAATAATTGTTATAAAAATACCGGAGTTAAACTAGATTGATTATCACCGAGATTTTATATTTGTCAAGATATATAGATGGTCCATCGAAAGGATTGGTGCTTCCAAAACCTTCGATGTCACCTCCTGA (double strand) [W3-box fragment (MINI3 promoter)] | binds
2 | GACATTACTGTCATCGTATATGAAACATTATTCTAATAATTGTTATAAAAATACCGGAGTTAAACTAGATTGATTATCACCGAGATTTTATATTTGTCTAGATATATAGATGGTCCATCGAAAGGATTGGTGCTTCCAAAACCTTCGATGTCACCTCCTGA (double strand) [mW3-box fragment] | binds

Source: paper PMC3591269
